Experiments:
Saccharomyces cerevisiae [1] = assay: protein stability index of tFT-peptide fusion in wild type (PSI (0-1 scale)); higher = more stable (slower turnover); conditions: genetic background: wild type
Method: (§1)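 MPS profiling in S. cerevisiae of two library types built from selected 12-aa C-degron peptides (IN1, IN2, LN1, LN3, VN2, R1-R5, W1-W3, Atg1 and Rpa12 C-termini): saturation mutagenesis libraries and C-terminal +1 capping libraries (13 aa). Each peptide is fused to the C-terminus of a sfGFP-mCherry timer, after a GGGS linker. Cells are FACS-sorted into 8 mCherry/sfGFP bins and sequenced. PSI runs from 0 (unstable) to 1 (stable), measured once in wild type and in the das1Δ or doa10Δ background.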

Saccharomyces cerevisiae [2] = assay: protein stability index of tFT-peptide fusion in deletion strain of DAS1 (PSI (0-1 scale)); higher = more stable (slower turnover)
Method: as §1
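Throughout, for protein stability index of tFT-peptide fusion in deletion strain of DAS1: PSI is a weighted mean of each variant's read distribution over the sorted stability bins, computed only for variants having over 10 reads in total.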
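Throughout, for protein stability index of tFT-peptide fusion in wild type: PSI derived as read-weighted mean over the 8 sorting bins, only variants exceeding 10 total reads kept, mCherry placed adjacent to the peptide and sfGFP distal.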

Sequence	protein stability index (Saccharomyces cerevisiae [1])	protein stability index (Saccharomyces cerevisiae [2])
VRGAVGGWRLKG	0.607	0.673
RLAQPLPVQFLN	0.0466	0.566
LVVSLSCVACIN	0.0181	0.0593
RLIQLLPVQFLN	0.0564	0.635
TVVYLSCVACIN	0.0176	0.0307
FSMRWTFRYWTN	0.0691	0.644
RLIQPEPVQFLN	0.215	0.61
PDKRNHLIKLLF	0.269	0.576
LVVYPSCVACIN	0.248	0.337
RLRQPLPVQFLN	0.0588	0.593
LKILRQKMNHQL	0.172	0.67
KMHKKGQKQKIN	0.1	0.857
ARWQVGLWRGAS	0.444	0.656
KKHKKGYKQKIN	0.113	0.607
ARWRVGLWEGAS	0.675	0.658
LVVYLSCVACIY	0.0122	0.0359
CSSCGYKFRTNN	0.216	0.695
RLIQPLPVQELN	0.525	0.703
LKILRQKMNHQNM	0.601	0.592
VRGTVGGWRLVG	0.151	0.705
PSLAASAWRVVG	0.155	0.666
LKILRQKMNHQI	0.179	0.67
VDKRNHLIKLLN	0.105	0.609

Sequence	protein stability index (Saccharomyces cerevisiae [1])	protein stability index (Saccharomyces cerevisiae [2])
FNMRWTFRYWVN	0.0433	0.518
CTSCGYKFTTNN	0.675	0.704
ARWRVGLARGAS	0.707	0.692
LVVYWSCVACIN	0.0151	0.0704
PQKRNHLIKLLN	0.113	0.597
LKILRQKMGHQN	0.541	0.672
PSLAASNWRVVG	0.22	0.692
FSMRWTFRTWVN	0.181	0.475
LVVYLSCVATIN	0.0174	0.0278
PDKRMHLIKLLN	0.0774	0.592
FSMRWTFRYWIN	0.0567	0.469
LVVYLSKVACIN	0.0955	0.38
PDKRNHLIKGLN	0.546	0.619
NRWRVGLWRGAS	0.454	0.685
CTSCGYKFRTNND	0.692	0.7
PSLWASFWRVVG	0.103	0.697
PSLAANFWRVVG	0.159	0.689
KKKKKGQKQKIN	0.164	0.567
KKHKKFQKQKIN	0.0762	0.599
PSLEASFWRVVG	0.121	0.673
FSMRWTFRYWVW	0.195	0.377
FSMRWTFRYEVN	0.168	0.509
ARARVGLWRGAS	0.531	0.688

Sequence	protein stability index (Saccharomyces cerevisiae [1])	protein stability index (Saccharomyces cerevisiae [2])
RLFQPLPVQFLN	0.034	0.658
PDKRNHLIKLLNV	0.203	0.659
VRGMVGGWRLVG	0.161	0.683
LVVYLSCCACIN	0.0859	0.138
RSIQPLPVQFLN	0.0915	0.643
PSLAASFWRVVGM	0.679	0.703
PSLAASFWRVVGE	0.672	0.668
VRGAVLGWRLVG	0.146	0.677
ARWTVGLWRGAS	0.495	0.692
PDKRNHLTKLLN	0.17	0.584
LVVYLSCVACING	0.0204	0.0326
PDKVNHLIKLLN	0.129	0.658
VRVAVGGWRLVG	0.111	0.652
PDKRNDLIKLLN	0.184	0.626
LVVYLSWVACIN	0.0137	0.0348
ARWRVGLQRGAS	0.677	0.69
RLMQPLPVQFLN	0.1	0.572
WSMRWTFRYWVN	0.0469	0.48
LVVYLHCVACIN	0.0158	0.0327
PDKRNHTIKLLN	0.176	0.582
PDKRNHLIKLGN	0.617	0.605
NLIQPLPVQFLN	0.0875	0.582
RLIQPLPVMFLN	0.0639	0.564

Sequence	protein stability index (Saccharomyces cerevisiae [1])	protein stability index (Saccharomyces cerevisiae [2])
ARGRVGLWRGAS	0.432	0.685
LHILRQKMNHQN	0.105	0.662
RLIQCLPVQFLN	0.0457	0.571
KKHKKGQKQKCN	0.312	0.584
CTSCGYKFRTMN	0.186	0.682
KKHKKGQKQKID	0.547	0.611
ARWHVGLWRGAS	0.365	0.71
PDKGNHLIKLLN	0.23	0.635
FSMMWTFRYWVN	0.0586	0.354
KKHHKGQKQKIN	0.0513	0.588
TKILRQKMNHQN	0.148	0.67
KKHKKGQKQTIN	0.362	0.571
CTSCGYSFRTNN	0.391	0.695
FSTRWTFRYWVN	0.0442	0.62
FSMRWTFRCWVN	0.17	0.425
PSLMASFWRVVG	0.131	0.707
PDKRNHLIKLLS	0.102	0.653
CTRCGYKFRTNN	0.231	0.699
ARWRVGLWRGASI	0.652	0.665
FSMRWTFRYWVS	0.181	0.547

From the supplement of paper PMC10724198
